The values below come from article doi:10.1101/2020.01.09.899237 (bioRxiv, 2020).

First the molecules themselves.
B1: FITC-labelled JD_(1-77) (domain or fragment)
chain: not shown
modifications: FITC-maleimide label (site not stated)

The target in one series is HspA1A (human Hsp70) (human, UniProt P0DMV8 1-641). In words: fluorescence polarisation. In general terms: In fluorescence polarisation assays a small probe gives low polarisation when free and higher when bound to something large.
The series “cross-linking” concerns the molecule itself. In words: cross-linking.
The series “dynamic light scattering” concerns the molecule itself. In words: dynamic light scattering.
Series [1] addresses B1. Put plainly: MST.
Series [2] addresses B1. In words: fluorescence polarisation.

HspA1A (human Hsp70), sequence (P0DMV8 whole entry): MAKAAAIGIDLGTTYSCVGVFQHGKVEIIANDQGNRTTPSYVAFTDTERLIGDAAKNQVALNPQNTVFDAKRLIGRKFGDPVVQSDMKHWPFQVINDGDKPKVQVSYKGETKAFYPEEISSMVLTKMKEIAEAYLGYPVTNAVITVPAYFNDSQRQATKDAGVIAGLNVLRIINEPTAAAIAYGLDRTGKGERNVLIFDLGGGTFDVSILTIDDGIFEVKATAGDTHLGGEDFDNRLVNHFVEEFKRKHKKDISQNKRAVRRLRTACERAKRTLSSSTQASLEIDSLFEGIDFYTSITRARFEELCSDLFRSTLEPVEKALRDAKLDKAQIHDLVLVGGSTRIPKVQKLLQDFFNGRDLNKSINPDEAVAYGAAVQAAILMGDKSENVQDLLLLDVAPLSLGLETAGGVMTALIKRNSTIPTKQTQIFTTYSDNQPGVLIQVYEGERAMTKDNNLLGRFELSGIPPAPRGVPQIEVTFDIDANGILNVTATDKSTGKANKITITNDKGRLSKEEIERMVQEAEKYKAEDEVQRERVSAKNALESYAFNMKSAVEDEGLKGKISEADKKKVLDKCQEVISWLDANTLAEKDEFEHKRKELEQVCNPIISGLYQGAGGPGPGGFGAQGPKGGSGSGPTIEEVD

The Kd is the concentration at which binding is half-saturated. Low readings indicate tighter binding, high ones weaker binding. Molecule B1 registered a Kd with HspA1A (human Hsp70) of 257 ± 29 nM.

B2: DnaJB8-mClover3 fusion protein (natural protein, human, UniProt Q8NHS0 1-232, looked up)
chain: MANYYEVLGVQASASPEDIKKAYRKLALRWHPDKNPDNKEEAEKKFKLVSEAYEVLSDSKKRSLYDRAGCDSWRAGGGASTPYHSPFDTGYTFRNPEDIFREFFGGLDPFSFEFWDSPFNSDRGGRGHGLRGAFSAGFGEFPAFMEAFSSFNMLGCSGGSHTTFSSTSFGGSSSGSSGFKSVMSSTEMINGHKVTTKRIVENGQERVEVEEDGQLKSVTVNGKEQLKWMDSK
As for B2, in “cross-linking”, the binding result is given as “binds”.

B3: DnaJB8 (recombinant full-length wild type) (natural protein, human, UniProt Q8NHS0 1-232, looked up)
chain: MANYYEVLGVQASASPEDIKKAYRKLALRWHPDKNPDNKEEAEKKFKLVSEAYEVLSDSKKRSLYDRAGCDSWRAGGGASTPYHSPFDTGYTFRNPEDIFREFFGGLDPFSFEFWDSPFNSDRGGRGHGLRGAFSAGFGEFPAFMEAFSSFNMLGCSGGSHTTFSSTSFGGSSSGSSGFKSVMSSTEMINGHKVTTKRIVENGQERVEVEEDGQLKSVTVNGKEQLKWMDSK
Take B3: in “dynamic light scattering”, the binding result is reported as “binds”.

B4: DnaJB8 C-terminal domain CTD_(170-232) (domain or fragment, human, UniProt Q8NHS0 170-232, looked up)
chain: GGSSSGSSGFKSVMSSTEMINGHKVTTKRIVENGQERVEVEEDGQLKSVTVNGKEQLKWMDSK
Turning to B4, the Kd came out at 5.36 ± 1.15 µM with FITC-labelled JD_(1-77) [1] and 542 ± 71 nM with FITC-labelled JD_(1-77) [2].
